One assay concerns the target T1, hDAXX 4HB F87A (Homo sapiens).
T1 chain: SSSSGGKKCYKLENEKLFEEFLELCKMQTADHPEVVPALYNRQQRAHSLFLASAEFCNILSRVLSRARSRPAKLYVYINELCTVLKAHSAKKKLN
The assay is described as follows: ITC. On the technique in general: Isothermal titration calorimetry measures the heat released or taken up as one component is titrated into another.

The target of assay [1] is T2, human DAXX four-helix bundle domain (4HB, residues 50–144) (human, UniProt Q9UER7 50-144).
T2 construct: DAXX (death-domain-associated protein), human, N-terminal four-helix bundle, residues 50-144; Expressed and purified 'in a similar way' as the fusion protein (His6-SUMO removed with Ulp1); also called DAXX 4HB; hDAXX 4HB; source: E. coli BL21(DE3)-RIL, purified (Ni-NTA, heparin, Superdex 200); not shown: His6-SUMO, N-terminal, cleaved
T2 sequence (looked up): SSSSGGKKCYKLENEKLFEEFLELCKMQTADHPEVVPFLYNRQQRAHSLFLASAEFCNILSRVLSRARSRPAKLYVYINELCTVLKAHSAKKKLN
The assay is described as follows: ITC; 17 injections of 2.2 μl ATRX DBM peptide (1.5 mM) into 200 µl DAXX 4HB or mutants (150 µM); 20 °C; 20 mM Tris pH 7.5, 0.3 M NaCl; single site-binding model. The settings on record: both partners purified.

The target of assay [2] is T3, human DAXX 4HB F87L (tumor mutation) (human, UniProt Q9UER7 50-144, F87L).
T3 construct: DAXX, human, four-helix bundle, residues 50-144, with the tumor mutation F87L; also called DAXX F87L; source: E. coli BL21(DE3)-RIL, purified (Ni-NTA, heparin, Superdex 200); not shown: His6-SUMO, N-terminal, cleaved
T3 sequence (looked up): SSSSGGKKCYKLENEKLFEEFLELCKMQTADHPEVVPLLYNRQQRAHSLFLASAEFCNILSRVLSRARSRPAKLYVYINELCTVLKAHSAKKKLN
The assay is described as above. The settings on record: both partners purified.

Assay [3] deals with T4, human DAXX four-helix bundle domain (4HB, residues 50–144) (human, UniProt Q9UER7 50-144).
T4 chain: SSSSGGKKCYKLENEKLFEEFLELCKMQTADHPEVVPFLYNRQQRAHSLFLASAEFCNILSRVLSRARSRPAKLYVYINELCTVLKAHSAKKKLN
The assay is described as follows: ITC.

B1: human ATRX DAXX-binding motif (DBM) peptide, wild type (peptide, UniProt P46100 1265-1288, looked up)
peptide: NDPENRIAKKMLLEEIKANLSSDE
notes: The limits 1265–1288 are printed for the DBM of the fusion construct; also called ATRX DBM; hATRX DBM; source: synthetic peptide (Tufts University Peptide Core Facility)
With B1, the figures for the dissociation constant (Kd) (with hDAXX 4HB F87A; in assay [1]; in assay [2]) were 7.5 µM, 0.9 µM and 33.8 µM, respectively.

B2: human ATRX DBM peptide I1280A (peptide, UniProt P46100 1265-1288, looked up)
peptide: NDPENRIAKKMLLEEAKANLSSDE
notes: ATRX, human, DBM, residues 1265-1288, with I1280A; Limits as for m4; also called ATRX I1280A mutant; source: synthetic peptide (Tufts University Peptide Core Facility)
As to B2, the equilibrium dissociation constant (Kd) (in general, the concentration at which binding is half-saturated) in assay [3] is 12.9 µM. In addition, the “fold weaker binding than wild-type ATRX DBM” value in assay [1] was about 14 fold.

These data come from publication PMC5662737, “Structural and mechanistic insights into ATRX-dependent and -independent functions of the histone chaperone DAXX” (Nature Communications, 2017).
